Laboratory results published in PMC3366790 (The Journal of Biological Chemistry, 2012).

Biological target: T1, full-length CDC34 with C191S/C223S substitutions (human, UniProt P49427 1-236, C191S | C223S)
T1 sequence: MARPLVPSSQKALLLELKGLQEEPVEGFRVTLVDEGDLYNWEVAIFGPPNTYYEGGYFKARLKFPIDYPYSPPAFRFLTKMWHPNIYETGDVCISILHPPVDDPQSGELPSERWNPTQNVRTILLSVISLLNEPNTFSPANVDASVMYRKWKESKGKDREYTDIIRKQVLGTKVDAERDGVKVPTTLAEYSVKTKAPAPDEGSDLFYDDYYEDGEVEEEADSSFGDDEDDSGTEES
Assay: NMR titration

Kd: > 1000 µM
B1: sRbx1^12–108 (solubilized human Rbx1/ROC1 residues 12–108 with W27S, V30S, L32Q, W33S) (domain or fragment)
chain: not shown
